US6248875, “Neuronal MORT1 isoforms” (American Home Products Corporation, dated 2001)

Biological target: T1, SNF4-pACTII (unrelated fusion with Gal4 activation domain) (yeast, UniProt P12904)
T1 sequence: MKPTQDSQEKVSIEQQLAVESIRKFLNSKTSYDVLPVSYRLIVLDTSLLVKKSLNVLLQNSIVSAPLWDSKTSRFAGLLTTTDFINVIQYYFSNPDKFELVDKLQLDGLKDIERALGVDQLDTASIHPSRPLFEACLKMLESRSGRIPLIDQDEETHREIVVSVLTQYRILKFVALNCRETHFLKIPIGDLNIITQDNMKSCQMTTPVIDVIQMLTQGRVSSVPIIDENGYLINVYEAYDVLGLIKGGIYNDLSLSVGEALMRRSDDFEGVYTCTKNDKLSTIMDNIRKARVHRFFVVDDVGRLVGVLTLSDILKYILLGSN
Experiment: yeast two-hybrid, HIS3 reporter, strain YCB5.1
Method: Figure 1: FIG. 1: Investigation of the MORT1 transcript isoforms with MACHα1 C360S in a yeast two-hybrid system: Activation of the HIS3 reporter gene. Each MORT1 transcript isoforms was expressed as a fusion protein with Gal4 DNA binding domain. MACHα1 C360S was expressed as a fusion protein with the Gal4 activation domain. Yeast strains were plated at a cell density of 5 ×10^1, 5 ×10^2, 5 ×10^3, 5 ×10^4 and 5 ×10^5 (left to right within a plate. Sibling isolates from yeast strains expressing a MORT1 transcript isoform with MACHα1 C360S fusion proteins were plated on histidine deficient media containing 0, 20 or 40 mM 3-aminotriazole (3-AT). The top row of plates (1) contained yeast strains that express two fusion proteins as follows: YCB5: MORT1-pAS1/MACHα1 C360S-pACTII; YCB9: MORT1Δ21-pAS1/MACHα1 C360S-pACTII; YCB16: MORT1 G173A-pAS1/MACHα1 C360S-pACTII. The bottom row of plates (3) contains negative control strains which express only the MORT1 transcript isoform fusion protein with a recombinant vector containing nonrelated heterologous DNA, as follows: YCB5.1: MORT1-pAS1/SNF4-pACTII; YCB9.1: […]. […] Each MORT1 transcript isoforms was expressed as a fusion protein with Gal4 DNA binding domain. MACHα1 C360S was expressed as a fusion protein with the Gal4 activation domain. […]

B1: MORT1 fusion protein with Gal4 DNA binding domain (MORT1-pAS1) (other)
chain: MDPFLVLLHSVSSSLSSSELTELKFLCLGRVGKRKLERVQSGLDLFSMLLEQNDLEPGHTELLRELLASLRRHDLLRRVDDFEAGAAAGAAPGEEDLCAAFNVICDNVGKDWRRLARQLKVSDTKIDSIEDRYPRNLTERVRESLRIWKNTEKENATVAHLVGALRSCQMNLVADLVQEVQQARDLQNRSGAMSPMSWNSDASTSEAS
B1: no binding.
